The values that follow come from patent US7829301B2, “Screening assays for binding antagonists of the AMD-associated variant of factor H (H384)” (The University of Manchester, priority 2006, dated 2010).

One test concerns the target T1, CRP (Homo sapiens, UniProt P02741).
T1 construct: purchased Calbiochem
T1 sequence (P02741 19-224): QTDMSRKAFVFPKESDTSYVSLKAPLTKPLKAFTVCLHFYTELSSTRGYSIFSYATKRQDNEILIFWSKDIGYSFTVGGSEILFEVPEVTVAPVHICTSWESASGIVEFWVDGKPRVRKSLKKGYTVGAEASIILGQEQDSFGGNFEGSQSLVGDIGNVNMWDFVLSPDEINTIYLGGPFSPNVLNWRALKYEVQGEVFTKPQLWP
Nature of the test: Protein/protein binding assay with coated CRP. Here is the method: FMOD was isolated from bovine articular cartilage (Heinghrd et al., (1986) J. Biol. Chem. 261, 13866-13872) and recombinant CRP was obtained from Calbiochem. Deglycosylated FMOD was prepared by treatment with N-glycosiadase F (Roche Applied Science) as previously described (Sjöberg et al. (2005) J. Biol. Chem. 280, 32301-32308).
CRP or FMOD was coated overnight at 4° C. onto microtiter plates (Maxisorp, Nunc) at a concentration of 10 μg/ml in 75 mM sodium carbonate buffer, pH 9.6. Wells treated only with coating buffer or 1% (w/v) BSA (Sigma) in coating buffer (for the assays involving FMOD) were used as negative controls. Between each step the wells were washed extensively with 50 mM Tris-HCl, 150 mM NaCl, 0.1% (v/v) Tween 20, pH 7.5. All wells were blocked with 1% (w/v) BSA (Sigma) in phosphate buffered saline (Invitrogen) for 1 hour at 37° C. […] The amount of bound protein was assessed using a goat polyclonal anti-FH antibody (Quidel, Cat # A312) followed by HRP-labeled anti-goat secondary antibodies (Dako) and the OPD development kit (Dako). Detection of biotinylated protein was performed using a StreptABComplex/HRP-kit from Dako, and in both cases the absorbance at 490 nm was measured to quantify protein binding.

Test [1] is described as follows: Biotinylated bovine HS plate assay. The format is binding. The settings on record: proteins immobilised at 1 μg/well. Here is the method: The HS binding properties of FHCCP6-8(H384), FHCCP6-8(Y384) and full length Factor H were further tested using biotinylated bovine kidney heparan sulphate (Sigma) where the proteins were coated onto the wells of a Maxisorp microtitre plate (NUNC) at 1 μg/well in PBS (Oxoid; 137 mM NaCl, 2.6 mM KCl, 8.2 mM Na2HPO4, 1.5 mM KH2PO4, pH 7.3) overnight at room temperature. Link_TSG6 (denoted as L-TSG-6 in FIG. 9), a known HS-binding domain (see Mahoney et al. (2005) J. Biol. Chem. 280, 27044-27055) was immobilised at 1 μg/well as a positive control. Plates were blocked the next morning with 1% (w/v) BSA (Sigma, Cat. No. A-4503) in standard assay buffer (20 mM HEPES, 130 mM NaCl, 0.05% (v/v) Tween-20, pH 7.3) for 90 minutes at 37° C. The standard assay buffer was used for all subsequent incubations, dilutions and washes at room temperature. The biotinylated HS was incubated at various concentrations with the immobilised proteins for 4 hours. Bound material was detected by adding 200 μl/well of a 1:10,000 dilution of ExtrAvidin alkaline phosphatase (Sigma, Cat. No. E-2636) for 30 minutes. Plates were then developed with 200 μl/well of 1 mg/ml disodium p-nitrophenylphosphate (pNPP; Sigma) in 0.05 M Tris-HCl, 0.1 M NaCl, pH9.3, and developed for 40 minutes; the absorbance at 405 nm was measured and the signal from blank wells subtracted.

Changes are numbered by the printed parent chain.

B1: FHCCP6-8(H384): recombinant protein of Factor H CCPs 6-8, H384 allotype, with N-terminal non-authentic glycine (SEQ ID NO: 1) (protein, listed as Homo sapiens)
chain: MGTLKPCDYPDIKHGGLYHENMRRPYFPVAVGKYYSYYCDEHFETPSGSYWDHIHCTQDGWSPAVPCLRKCYFPYLENGYNQNHGRKFVQGKSIDVACHPGYALPKAQTTVTCMENGWSPTPRCIRVKTCSKSSIDIENGFISESQYTYALKEKAKYQCKLGYVTADGETSGSITCGKDGWSAQPTCI
modifications: VARIANT (1)...(188) Protein sequence of the FHCCP6-8 (H384) construct
With B1, the “binding to CRP relative to the other variant” value with CRP (biotinylated proteins) is “lower CRP binding”. In addition, the “interaction with biotinylated bovine kidney HS” value in test [1] was “interact”.

B2: FHCCP6-8(Y384): recombinant Factor H CCPs 6-8, Y384 variant obtained by site-directed mutagenesis (SEQ ID NO: 3) (protein, listed as Homo sapiens)
chain: B1 chain with H84Y
modifications: VARIANT (1)...(188) FHCCP6-8 (Y384 allotype of mature Factor H)
Consider B2, for which, in the test with CRP (detection with polyclonal anti-FH antibody, p<0.03), the “binding to CRP relative to the other variant” value is given as “bound significantly better”. For the same molecule, in test [1], the “interaction with biotinylated bovine kidney HS” value is given as “interact”.
